Test results taken from patent US20040053370A1 (Eli Lilly, published 2004).
Where a chain is given by its changes, count along the chain named. Ends that are not written are not given here.

B1: Val^8-Tyr^12-GLP-1(7-37)OH (peptide)
peptide: HVEGTYTSDVSSYLEGQAAKEFIAWLVKGRG
B2: Val^8-Tyr^16-GLP-1(7-37)OH (peptide)
peptide: B1 peptide with Y6F, V10Y
B3: Val^8-Trp^19-Glu^22-GLP-1(7-37)OH (peptide)
peptide: B1 peptide with Y6F, Y13W, G16E
B4: Val^8-Phe^19-Glu^22-GLP-1(7-37)OH (peptide)
peptide: B1 peptide with Y6F, Y13F, G16E
B5: HVEGTFTSDLSKQMEEEAVRLFIAWLVKGRG (peptide)
peptide: HVEGTFTSDLSKQMEEEAVRLFIAWLVKGRG
B6: HVEGTFTSDVSSYLEEEAVRLFIAWLVKGRG (peptide)
peptide: HVEGTFTSDVSSYLEEEAVRLFIAWLVKGRG
B7: HVEGTFTSDLSKQMEGQAAKEFIAWLVKGRG (peptide)
peptide: HVEGTFTSDLSKQMEGQAAKEFIAWLVKGRG
B8: HGEGTFTSDLSKQMEGQAAKEFIEWLKNGGP-NH2 (peptide)
peptide: HGEGTFTSDLSKQMEGQAAKEFIEWLKNGGP-NH2
B9: HGEGTFTSDLSKQMEEEAAKEFIEWLKNGGP-NH2 (peptide)
peptide: HGEGTFTSDLSKQMEEEAAKEFIEWLKNGGP-NH2
B10: HGEGTFTSDVSSYLEEEAVRLFIEWLKNGGP-NH2 (peptide)
peptide: HGEGTFTSDVSSYLEEEAVRLFIEWLKNGGP-NH2
B11: HGEGTFTSDLSSYLEEEAVRLFIEWLKNGGP-NH2 (peptide)
peptide: HGEGTFTSDLSSYLEEEAVRLFIEWLKNGGP-NH2
B12: HAEGTFTSDVSSYLEGQAAKEFIAWLVKGRPSSGAPPPS-NH2 (peptide)
peptide: HAEGTFTSDVSSYLEGQAAKEFIAWLVKGRPSSGAPPPS-NH2
B13: HAEGTFTSDVSKQLEEEAAKEFIAWLVKGRG (peptide)
peptide: HAEGTFTSDVSKQLEEEAAKEFIAWLVKGRG
B14: HVEGTFTSDVSSYLEGQAAKEFIEWLKNGGP-NH2 (peptide)
peptide: HVEGTFTSDVSSYLEGQAAKEFIEWLKNGGP-NH2
B15: HGEGTFTSDLSKQMEEEAVRLFIAWLVKGRG (peptide)
peptide: B5 peptide with V2G
B16: Val^8-GLP-1(7-37)OH (peptide)
peptide: B1 peptide with Y6F

Each binder was assayed against GLP-1 receptor (assay: cell-based or functional assay).

For B1, which “GLP-1 Receptor Activation” value is on record?
Its value is 0.81 fold of GLP-1(7-37)OH.

Which “GLP-1 Receptor Activation” value does the source give for B2 here?
Its value is 1.18 fold of GLP-1(7-37)OH.

Target: GLP-1 receptor
Test: cell-based or functional assay
Remark: another data set of the same source

For B1, which “GLP-1 Receptor Activation” value is on record?
Its value is 0.8 fold of GLP-1(7-37)OH.

B2 was tested. Which “GLP-1 Receptor Activation” value did it give?
The value was 1.18 fold of GLP-1(7-37)OH.

How did the “GLP-1 Receptor Activation” value turn out when B3 was run?
The value was 1.5 fold of GLP-1(7-37)OH.

For B4, which “GLP-1 Receptor Activation” value is on record?
Its value is 0.7 fold of GLP-1(7-37)OH.

Target: GLP-1 receptor
Test: cell-based or functional assay
Remark: another data set of the same source

B5 was tested. Which “In Vitro Activity (% of Val^8-GLP-1(7-37)OH)” value did it give?
The value was 2.86 % of Val^8-GLP-1(7-37)OH.

With B6 as the binder, how does the “In Vitro Activity (% of Val^8-GLP-1(7-37)OH)” value read?
The value was 1.47 % of Val^8-GLP-1(7-37)OH.

B7 was tested. Which “In Vitro Activity (% of Val^8-GLP-1(7-37)OH)” value did it give?
Its value is 0.11 % of Val^8-GLP-1(7-37)OH.

How did the “In Vitro Activity (% of Val^8-GLP-1(7-37)OH)” value turn out when B8 was run?
Its value is 1.44 % of Val^8-GLP-1(7-37)OH.

B9 was tested. Which “In Vitro Activity (% of Val^8-GLP-1(7-37)OH)” value did it give?
Its value is 2.8 % of Val^8-GLP-1(7-37)OH.

B10 was tested. Which “In Vitro Activity (% of Val^8-GLP-1(7-37)OH)” value did it give?
Its value is 5.4 % of Val^8-GLP-1(7-37)OH.

With B11 as the binder, how does the “In Vitro Activity (% of Val^8-GLP-1(7-37)OH)” value read?
Its value is 5.07 % of Val^8-GLP-1(7-37)OH.

For B12, which “In Vitro Activity (% of Val^8-GLP-1(7-37)OH)” value is on record?
The value was 3.3 % of Val^8-GLP-1(7-37)OH.

B13 was tested. Which “In Vitro Activity (% of Val^8-GLP-1(7-37)OH)” value did it give?
Its value is 2.15 % of Val^8-GLP-1(7-37)OH.

How did the “In Vitro Activity (% of Val^8-GLP-1(7-37)OH)” value turn out when B14 was run?
The value was 2.36 % of Val^8-GLP-1(7-37)OH.

How did the “In Vitro Activity (% of Val^8-GLP-1(7-37)OH)” value turn out when B15 was run?
Its value is 3.25 % of Val^8-GLP-1(7-37)OH.

How did the “In Vitro Activity (% of Val^8-GLP-1(7-37)OH)” value turn out when B16 was run?
The value was 1 % of Val^8-GLP-1(7-37)OH.
